Measured values as given in paper doi:10.1101/2022.11.04.515028.

Target: GST-ELOB/ELOC complex (UniProt Q15370)
Assay: fluorescence polarisation

| Ki | Kd | Substance |
| --- | --- | --- |
| 2.35 nM |  | EPOPwt (peptide) |
|  | 0.45 nM | EPOPwt-FAM (peptide) |
